Data on 1 molecule can be found in publication PMC3818982 (Microbial Cell Factories, 2013).

The test addresses T1, human epidermal growth factor receptor (EGFR) (Homo sapiens (A431 and FaDu cells), UniProt P00533).
T1 construct: human EGFR, full-length receptor presented by living A431 (epidermoid carcinoma) and FaDu (squamous carcinoma) cells; also called human EGFR; source: endogenous, on living A431 and FaDu cells
The test can be described thus: radioligand binding; ^99mTc-labelled sdAb on A431 and FaDu cells, 1 h on ice, with or without pre-blocking by a 40-fold excess of unlabeled Cetuximab; read-out % ID/mg protein. The note with it: one partner purified.

B1: EGFR-specific single-domain antibody EG2 (VHH)
VHH: QVKLEESGGGLVQAGDSLRVSCAASGRDFSDYVMGWFRQAPGKEREFVAAISRNGLTTRYADSVKGRFTISRDNDKNMVYLQMNSLKPEDTAVYYCAVNSAGTYVSPRSREYDYWGQGTQVTVSS
notes: an initial methionine was added by the NcoI site; Camelid-derived sdAb; Intradomain disulfide bridge formed in about 98% of the purified protein; also called sdAb EG2; ^99mTc-EG2; source: E. coli SHuffle T7 Express, cytoplasm (pET-28b:EG2), purified (Ni-IDA IMAC); not shown: His6, C-terminal, kept
B1: the binding result was “binds”.
